Test system: PFEK-protease T-6xHIS zymogen
Sequence (chain, as listed by the source): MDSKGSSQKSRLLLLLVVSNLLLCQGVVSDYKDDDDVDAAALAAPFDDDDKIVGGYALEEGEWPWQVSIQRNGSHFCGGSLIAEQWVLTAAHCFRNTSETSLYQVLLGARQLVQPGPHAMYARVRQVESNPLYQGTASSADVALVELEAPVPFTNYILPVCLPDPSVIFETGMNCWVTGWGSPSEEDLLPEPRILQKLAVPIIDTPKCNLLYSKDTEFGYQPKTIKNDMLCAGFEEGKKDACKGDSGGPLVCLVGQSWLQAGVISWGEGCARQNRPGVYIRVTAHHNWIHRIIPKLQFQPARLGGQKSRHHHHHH

enterokinase
cleavage of the zymogen (SDS-PAGE and anti-FLAG Western blot): quantitative cleavage of the expressed and purified zymogen to generate the processed and activated protease

Source: patent US20020146805
